For one assay, the target named is T1, CCR3 (Homo sapiens, UniProt P51677).
T1 sequence (P51677 1-355): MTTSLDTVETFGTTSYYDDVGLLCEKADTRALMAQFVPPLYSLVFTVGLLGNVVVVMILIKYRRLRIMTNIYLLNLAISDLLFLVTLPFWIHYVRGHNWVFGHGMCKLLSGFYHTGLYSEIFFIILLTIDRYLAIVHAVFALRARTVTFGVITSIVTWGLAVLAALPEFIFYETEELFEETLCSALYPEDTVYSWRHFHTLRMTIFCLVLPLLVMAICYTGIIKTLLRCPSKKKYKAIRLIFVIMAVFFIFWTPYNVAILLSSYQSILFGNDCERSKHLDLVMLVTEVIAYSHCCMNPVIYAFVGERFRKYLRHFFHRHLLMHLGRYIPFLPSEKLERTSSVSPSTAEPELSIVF
The following applies: CCR3 agonism; Buskermolen et al. 2017; cited from earlier work.

The subject of assay [1] is HEKn. As to the kind of experiment: Cell exclusion zone assay (in vitro wound closure / migration). The class given is cell-based, human. The note with it: 16 hours. On the procedure: HEKn were seeded (2.0×10^4 per well) around the barrier of a collagen I coated Oris Cell Migration Assay 96-well plate (Platypus, West Lebanon, NH). Cells were incubated overnight to allow for cell attachment. After incubation, the circular barriers were removed (except for reference wells), and the cells were treated with either anti-CCR3 (R&D Systems, Minneapolis, MN) (2 ug/mL), IgG control (R&D Systems, Minneapolis, MN; 2 μg/mL), CCL24 (Biolegend, […], CA), CCL26 (Biolegend, San Jose, CA), or IGF (ThermoFisher, Waltham, MA; 10 ng/mL) for 16 hours. At the end of the experiment, Calcein-AM (Life Technologies, Carlsbad, CA) (2 μM) was added prior to obtaining images with a Nikon TE2000-E inverted epi-fluorescence microscope (2× objective). ImageJ (NIH) was utilized to analyze the images.

Assay [2] deals with HEKn. Briefly: Proliferation assay (PrestoBlue). The assay is classed as cell-based, human. The following applies: 16 hours. How it is done:
Cells were plated on a collagen I coated 96-well plate (Corning, New York, NY) at a density of 4×10^3 cells per well, and then allowed to attach overnight. The next day, cells were treated with CCL24 (Biolegend, San Diego, CA), CCL26 (Biolegend, San Diego, CA), or IGF (ThermoFisher, Waltham, MA) for 16 hours. To assess viability, PrestoBlue (Life Technologies, Carlsbad, CA) was added according to manufacturer's protocol, and results were obtained on a microplate reader (BioTek, Winooski, VT).

The next assay has as its system keratinocytes. The following applies: Kroeze et al. 2012, type IV collagen; cited from earlier work.

In the case of “CCL28: chemokine used for CCR3 agonism in cited oral wound healing study”, in the assay with CCR3, the oral wound healing entry is on record as “promote”.

B1: CCL26: CCR3-specific ligand Chemokine (C-C motif) ligand 26 (eotaxin-3), Biolegend (protein)
chain: TRGSDISKTCCFQYSHKPLPWTWVRSYEFTSNSCSQRAVIFTTKRGKKVCTHPRKKWVQKYISLLKTPKQL
Turning to B1, the keratinocyte migration result in the assay with HEKn [1] is listed as “did not significantly alter”. Besides, the keratinocyte proliferation entry in the assay with HEKn [2] (20 ng/mL), in the assay on HEKn [2] (50 ng/mL) and in the assay with HEKn [2] (100 ng/mL) was “significantly reduced” throughout.

B2: CCL24: CCR3-specific ligand Chemokine (C-C motif) ligand 24 (eotaxin-2), Biolegend (protein)
chain: VVIPSPCCMFFVSKRIPENRVVSYQLSSRSTCLKAGVIFTTKKGQQFCGDPKQEWVQRYMKNLDAKQKKASPRARAVA
Consider B2, for which the keratinocyte migration entry in the assay with HEKn [1] is “did not significantly alter”. Further, the keratinocyte proliferation result in the assay on HEKn [2] (20 ng/mL) is “significantly reduced”; with HEKn [2] (50 ng/mL), “significantly reduced”; with HEKn [2] (100 ng/mL), “significantly reduced”; in the assay on keratinocytes, “promoted”.

(Values after patent US12221463B2, “Method of promoting wound healing by inhibiting CCR3” (The Board of Regents of the University of Oklahoma, priority 2020, dated 2025).)
